Experimental data published in patent US20240075137A1 (COMPUGEN, published 2024).
Substitutions are numbered along the chain they refer to. Like-named read-outs stand apart in the source and are kept apart here.

B1: CHA.7.544 (antibody, V domains shown)
VH: QVQLKESGPGLVAPSQSLSITCTVSGFSLTSYAITWVRQPPGKGLEWLGVIWPGGGTNYNSALKSRLSISKDNSKSHLFLKMNSLQTDDTARYYCVRSYDGYLDWYFDVWGTGTTVTVSS
VL: NIVMTQSPKSMSMSVGERVTLSCKASENVGTYVSWYQQKPDQSPKLLIYGASNRYTGVPDRFTGSGSATDFTLIISSVQAEDLSDYHCGQSYSYPYTFGGGTKLEII
B2: CHA.7.514 (antibody, V domains shown)
VH: EVQLRQSGADLVKPGASVKLSCTASGFNIKDTYIDWVKQRPEQGLDWIGRIDPANGNTKYDPKFQGKATIITDTSSNTAYLQLSNLTSEDTAVYYCARYGSYPYFDYWGRGTTLAVSS
VL: SIVMTQTPKFLLISAGDRVTITCKASQSVRNDVAWYQQKPGQSPKLLMYYASNRYTGVPDRFTGSGYGTDFTFTISTVQAEDLAVYFCQQDYSSPPTFGGGTKLEIK
B3: CHA.7.516 (antibody, V domains shown)
VH: QVQLQQSGPELVRPGVSVKISCKVSGYTFTDYVMHWVKQSHAKSLEWIGIISPYSGNTNYNQNFKGKATMTVDKSSSTAYMALARLTSEDSAIYYCAREGDLPMFAYWGQGTLVTVSA
VL: QIVLTQSPTIMSASPGEKVTMTCSASSSVSYIYWYQQNPGSSPRLLIYDTSILASGVPFRFSGSGSGTSYSLTISRMEAEDAATYYCQQWTSYPLTFGSGTKLELK
B4: CHA.7.524 (antibody, V domains shown)
VH: B3 VH with L11V, V24G, T28K, T30P, P53I, N63K, A82E
VL: QIVLTQSPAIMSASPGEKVTMTCNASSSVSYMYWYQQKPISSPRLLIYDTSNLASGVPVRFSGSGSGTSYSLTIGRMEAEDAATYYCQQWSSYPLTFGAGTKVEVK
B5: CHA.7.522 (antibody, V domains shown)
VH: QVQLQQPGSELVRPGTSVKLSCKASGYTFTSYWVHWVRQRHGQGLEWIGNVYPGSGSTNYDEKFKSKGTLTVDTSSSTAYMHLSSLTSEDSAVYYCTRGVLRFPLDYWGQGTTLTVSS
VL: DIVMTQAAPSVPVTPGESVSISCRSSKSLLHSNGNTYLYWFLQRPGQSPHLLIYRMSNLASGVPDRFSGSGSGTAFTLRISRVEAEDVGVYYCMQHLEYPLTFGAGTKLELK
B6: CHA.7.512 (antibody, V domains shown)
VH: QIQLVQSGPELKKPRETVKISCKASGYTFTDYSMHWVKQAPGKGLKWMGWINTETGEPTYADDFKGRFAFSLEASASSAYLQINILKDEDTATYFCARSRGGYYEDYYALDYWGQGTSVTVSS
VL: DIQMTQSPASLSASVGESVTITCRASGNIHYYLAWYQQKQGKSPQLLVYNAKNLADGVPSRFSGSGSGTQFSLKINSLQPEDFGSYYCQHFWISPPTFGGGTKLEIK
B7: CHA.7.510 (antibody, V domains shown)
VH: QVTLKESGPGILQPSQTLSLTCSFSGFSLNTSGTGVGWIRQPSGKGLEWLTHIWWNDNKFYNTFLKSRLTISKETSNNQVFLKIASVDTADAATYYCARMAYGNLWFVNWGQGTLVAVST
VL: DIVLTQSPASLAVSLGQRASISCRASRSVTISGYSYMYWYQQKPGQPPRLLFYLASNLASGVPARFSGSGSGTDFTLNIHPVEEEDAAIYYCQHSRELPYTFGGGTKLEIK

Assays:
human PVRIG on cells [1] = molecular target: T1, human PVRIG on cells (human, UniProt Q6DKI7 1-326); test: FACS, HEK hPVRIG over HEK parental cells, 3.3ug/ml
T1 construct: whole, on cells; over-expressed on HEK cells or endogenous on Jurkat and CD8 T cells; also called hPVRIG; HEK hPVRIG cells
T1 sequence (looked up): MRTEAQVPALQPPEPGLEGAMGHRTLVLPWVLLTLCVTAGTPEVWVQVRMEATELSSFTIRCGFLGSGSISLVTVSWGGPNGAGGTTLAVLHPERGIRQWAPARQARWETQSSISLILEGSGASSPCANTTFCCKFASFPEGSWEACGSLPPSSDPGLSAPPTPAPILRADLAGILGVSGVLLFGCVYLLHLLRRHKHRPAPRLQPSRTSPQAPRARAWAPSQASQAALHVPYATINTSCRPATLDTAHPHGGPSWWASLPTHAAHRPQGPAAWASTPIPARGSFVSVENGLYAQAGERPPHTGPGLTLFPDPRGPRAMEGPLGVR

human PVRIG on cells [2] = molecular target: T1, human PVRIG on cells; test: FACS, human PBMC, CD8+ T cells, 10ug/ml
human PVRIG on cells [3] = molecular target: T1, human PVRIG on cells; test: FACS, Jurkat cells, relative to control, 3.3ug/ml
human PVRIG on cells [4] = molecular target: T1, human PVRIG on cells; test: FACS, human PBMC, CD8+ T cells, 10ug/ml; remark: listed apart in the source
human PVRIG on cells [5] = molecular target: T1, human PVRIG on cells; test: FACS, human PBMC, CD56 int. NK cells, 10ug/ml
human PVRIG on cells [6] = molecular target: T1, human PVRIG on cells; test: FACS, human PBMC, CD56 int. NK cells, 10ug/ml; remark: listed apart in the source
[7] = molecular target: T2, cynomolgus PVRIG on cells (cynomolgus, UniProt A0A2K5WVV8 41-322); test: FACS, expi cPVRIG over expi parental cells, 3.3ug/ml
T2 construct: whole, on cells; also called cPVRIG; expi cPVRIG cells
T2 sequence: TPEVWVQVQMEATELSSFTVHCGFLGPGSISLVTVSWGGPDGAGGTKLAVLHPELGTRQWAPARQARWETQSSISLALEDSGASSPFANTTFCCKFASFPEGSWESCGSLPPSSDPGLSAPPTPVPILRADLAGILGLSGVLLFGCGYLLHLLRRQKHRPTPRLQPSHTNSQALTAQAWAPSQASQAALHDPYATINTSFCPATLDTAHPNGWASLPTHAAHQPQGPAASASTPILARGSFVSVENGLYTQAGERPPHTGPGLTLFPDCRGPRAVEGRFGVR

human PVRIG on cells [8] = molecular target: T1, human PVRIG on cells; test: FACS, HEK hPVRIG cells (HEK OE)
[9] = molecular target: T2, cynomolgus PVRIG on cells; test: FACS, expi cPVRIG over expi parental cells, 3.3ug/ml; remark: listed apart in the source
[10] = molecular target: T3, PVRIG (FACS-based competition assay of FIGS. 7 and 15) (Homo sapiens, UniProt Q6DKI7); test: FACS-based competition assay of PVRIG blocking; format and competitor not given
T3 construct: made because the format of the assay is only described in U.S. Ser. No. 15/048,967; also called human PVRIG
T3 sequence (receptor, looked up): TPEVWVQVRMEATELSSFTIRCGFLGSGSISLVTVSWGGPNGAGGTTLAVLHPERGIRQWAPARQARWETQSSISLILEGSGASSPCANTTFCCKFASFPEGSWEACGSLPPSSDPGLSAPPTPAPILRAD

human PVRIG on cells [11] = molecular target: T1, human PVRIG on cells; test: FACS, human PBMC, CD56 int. NK cells, 10ug/ml; remark: listed apart in the source
human PVRIG on cells [12] = molecular target: T1, human PVRIG on cells; test: FACS, HEK hPVRIG over HEK parental cells, 3.3ug/ml; remark: listed apart in the source
human PVRIG on cells [13] = molecular target: T1, human PVRIG on cells; test: FACS, HEK hPVRIG cells (HEK OE); remark: listed apart in the source
human PVRIG on cells [14] = molecular target: T1, human PVRIG on cells; test: FACS, Jurkat cells, relative to control, 3.3ug/ml; remark: listed apart in the source
human PVRIG on cells [15] = molecular target: T1, human PVRIG on cells; test: FACS, human PBMC, CD8+ T cells, 10ug/ml; remark: listed apart in the source
[16] = molecular target: T3, PVRIG (FACS-based competition assay of …); test: FACS-based competition assay of PVRIG blocking; format and competitor not given; remark: listed apart in the source
[17] = molecular target: T2, cynomolgus PVRIG on cells; test: FACS, expi cPVRIG over expi parental cells, 3.3ug/ml; remark: listed apart in the source
[18] = molecular target: T2, cynomolgus PVRIG on cells; test: FACS, cyno PBMC, NK cells, 10ug/ml
[19] = molecular target: T2, cynomolgus PVRIG on cells; test: FACS, cyno PBMC, CD8+ T cells, 10ug/ml
[20] = molecular target: T2, cynomolgus PVRIG on cells; test: FACS, cyno PBMC, NK cells, 10ug/ml; remark: listed apart in the source
[21] = molecular target: T2, cynomolgus PVRIG on cells; test: FACS, cyno PBMC, CD8+ T cells, 10ug/ml; remark: listed apart in the source

Binder	gMFIr Human CD8+ T cells (human PVRIG on cells [4])	gMFIr Human CD56 int. NK (human PVRIG on cells [6])	gMFIr Expi cyno OE/par [9]	IC50 [10]	gMFIr Human CD56 int. NK (human PVRIG on cells [11])	gMFIr HEK OE/par (human PVRIG on cells [12])	EC50 (human PVRIG on cells [13])	gMFIr Jurkat (human PVRIG on cells [14])	gMFIr Human CD8+ T cells (human PVRIG on cells [15])	IC50 [16]	gMFIr Expi cyno OE/par [17]	other results
B1	2.54	2.36	61.1	–	–	–	–	–	–	–	–	gMFIr HEK OE/par (human PVRIG on cells [1]): 42.6; gMFIr Human CD8+ T cells (human PVRIG on cells [2]): 2.54; gMFIr Jurkat (human PVRIG on cells [3]): 5.68; gMFIr Human CD56 int. NK (human PVRIG on cells [5]): 2.36; gMFIr Expi cyno OE/par [7]: 61.1; EC50 (human PVRIG on cells [8]): 0.76 nM
B2	5.15	4.16	65.2	38.9 nM	4.16	49.8	5.31 nM	7.67	5.15	38.9 nM	65.2	–
B3	4.09	4.22	60	33.1 nM	4.22	37.9	0.79 nM	5.73	4.09	33.1 nM	60	gMFIr Cyno NK cells [18]: 1.76; gMFIr Cyno CD8+ T cells [19]: 2.09
B4	6.12	5.5	66.3	30.2 nM	–	48.3	0.46 nM	7.87	–	30.2 nM	–	gMFIr Human CD8+ T cells (human PVRIG on cells [2]): 6.12; gMFIr Human CD56 int. NK (human PVRIG on cells [5]): 5.5; gMFIr Cyno NK cells [18]: 1.78; gMFIr Cyno NK cells [20]: 1.78; gMFIr Expi cyno OE/par [7]: 66.3; gMFIr Cyno CD8+ T cells [19]: 2.02; gMFIr Cyno CD8+ T cells [21]: 2.02
B5	1.9	2.06	27.2	50.5 nM	2.06	10.1	91.4 nM	2.99	1.9	50.5 nM	27.2	–
B6	1.15	1.3	8.96	840 nM	1.3	5.12	53 nM	1.47	1.15	840 nM	8.96	–
B7	2.73	3.13	38.2	55 nM	3.13	16.3	92.8 nM	4.19	2.73	55 nM	38.2	–
